Data on one protein can be found in article PMC12103068.

Substrate in the series: CC(=O)Oc1cccc2ccccc12
As to the kind of experiment: purified protein. The format is biochemical, Aspergillus oryzae. Particulars: 50 mM sodium phosphate pH 8.0, 30 °C (general assay conditions).

B1: AoAxeB (Aspergillus oryzae RIB40) (protein)
chain: AGSAGCGQPLPPSQNPGGSSYGVNFTLSAGTQRFYRIHIPSNYNVNTPTPLIFSFHGRGKTAESQEKLSQFSNEDWNPDAIAVYPQGLNKEWQGDPHSKDVDDIAFTMEMLDYFQEKFCIDSTRVYAAGKSNGGGFTNLLACDPTASTRIAAFAPVSGAYYQDVSEEACHPTTVPIKCSPGRPSIPILEFHGTADKTIPYGGGGRRGECLPSIPHFVREWSKRLGYGLHNTTKELYDGNVQEYQYGNGDNRGIVTHYRIGGLGHDWPSVRPNSDNPNGTYLDATPIIVKFFKQWVLPGSSEDNQSEAR
As a reminder, the Km is the concentration of substrate that gives half-maximal velocity. What is called kcat is the number of substrate molecules converted per active site and unit of time at saturation. Turning to B1, the Km is 240 ± 120 µM and the catalytic constant (kcat) was found to be 0.17 ± 0.03 s⁻¹.
